{"source": "patent US20140109263A1", "key": {"[1]": {"biological_target": "receptor proteins in midgut brush border membrane vesicles (BBMV's) from fall armyworm (FAW; Spodoptera frugiperda) larvae (Spodoptera frugiperda)", "assay": "heterologous competition: 1,000 nM unlabeled Cry1Da against 125I Cry1Ea on FAW BBMV's, FIG. 4"}, "[2]": {"biological_target": "receptor proteins in midgut brush border membrane vesicles (BBMV's) from fall armyworm (FAW; Spodoptera frugiperda) larvae (Spodoptera frugiperda)", "assay": "homologous competition: unlabeled Cry1Ea against 125I Cry1Ea on FAW BBMV's, FIG. 3"}, "[3]": {"biological_target": "receptor proteins in midgut brush border membrane vesicles (BBMV's) from fall armyworm (FAW; Spodoptera frugiperda) larvae (Spodoptera frugiperda)", "assay": "homologous competition: unlabeled Cry1Ea against 0.5 nM 125I Cry1Ea on FAW BBMV's (150 ug/ml), FIG. 1"}}, "note": "pIC50: −log10 of the molar value."}
{"substance": "Cry1Da protein, trypsinized (protease-processed Cry1Da) (from UniProt P19415 28-603)", "values": [{"measurement": "percent displacement of ^125I Cry1Ea", "setting": "[1]", "value": 40, "unit": "%"}]}
{"substance": "Cry1Ea protein, trypsin-cleaved activated form (protease-processed Cry1Ea) (from UniProt Q57458 1-612)", "values": [{"measurement": "pIC50", "setting": "[2]", "value": 9.00}, {"measurement": "pIC50", "setting": "[3]", "value": 9.00}]}
